Blank lines part the entries; values can stand above or below the molecule they belong to.
B3: Kar9C (residues 429–644) (domain or fragment, S. cerevisiae, UniProt P32526 429-644, looked up)
chain: SVIGTITQDFQERVAINEGDSNKTPENSTTVALKGKKLGKALLQKMNIKPATSPNSSNAINPFFDPESPNKGKLILSSVPPLPYDETDETTLRVSRGENEKSPDSFITSRHENKVQITETPLMAKNKSVLDIEKDKWNHYRSLPSRIPIYKDKVVKVTVENTPIAKVFQTPPTKITTPNSQVWVPSTRRRTRLRPPTPLSQLLSPREGRLDKTPTY
B4: C-terminal domain of Bim1 (residues 194–344) (domain or fragment, S. cerevisiae, UniProt P40013 194-344, looked up)
chain: ETIGSLNEEIEQYKGTVSTLEIEREFYFNKLRDIEILVHTTQDLINEGVYKFNDETITGHGNGNGGALLRFVKKVESILYATAEGFEMNDGEDELNDKNLGEHGTVPNQGGYANSNGEVNGNEGSNHDVIMQNDEGEVGVSNNLIIDEETF
B5: Kar9C-Site2mut (domain or fragment, S. cerevisiae, UniProt P32526 429-644, looked up)
chain: SVIGTITQDFQERVAINEGDSNKTPENSTTVALKGKKLGKALLQKMNIKPATSPNSSNAINPFFDPESPNKGKLILSSVPPLPYDETDETTLRVSRGENEKSPDSFITSRHENKVQITETPLMAKNKSVLDIEKDKWNHYRSLPSRNNIYKDKVVKVTVENTPIAKVFQTPPTKITTPNSQVWVPSTRRRTRLRPPTPLSQLLSPREGRLDKTPTY

What was measured:
[1] = biological target: Kar9N (residues 1–429) (S. cerevisiae) (UniProt P32526); test: SEC-MALS
[2] = biological target: Kar9 (full-length) (S. cerevisiae) (UniProt P32526); test: SEC-MALS
Kar9-GFP = biological target: T1, Kar9-GFP (S. cerevisiae, UniProt P32526 1-644); test: in vitro microtubule-tip tracking reconstitution
T1 sequence (looked up): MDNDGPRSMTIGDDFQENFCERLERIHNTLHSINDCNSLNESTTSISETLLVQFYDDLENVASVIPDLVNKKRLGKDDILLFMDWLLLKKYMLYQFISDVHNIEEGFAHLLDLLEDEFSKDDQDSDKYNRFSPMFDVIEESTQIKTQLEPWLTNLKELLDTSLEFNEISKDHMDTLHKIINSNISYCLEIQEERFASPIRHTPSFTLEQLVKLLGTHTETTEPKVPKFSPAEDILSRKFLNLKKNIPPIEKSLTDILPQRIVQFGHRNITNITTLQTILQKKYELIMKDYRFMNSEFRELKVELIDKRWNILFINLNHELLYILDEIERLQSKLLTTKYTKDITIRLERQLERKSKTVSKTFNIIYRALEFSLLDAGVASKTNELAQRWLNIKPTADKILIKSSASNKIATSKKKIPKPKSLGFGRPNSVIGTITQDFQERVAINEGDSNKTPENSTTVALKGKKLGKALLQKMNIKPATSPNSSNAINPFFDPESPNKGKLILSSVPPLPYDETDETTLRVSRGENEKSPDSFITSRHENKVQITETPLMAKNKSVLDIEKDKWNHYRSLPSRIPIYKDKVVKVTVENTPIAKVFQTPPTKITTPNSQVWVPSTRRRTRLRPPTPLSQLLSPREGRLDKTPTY

[3] = biological target: B4; test: ITC
Kar9 (full-length) = biological target: T2, Kar9 (full-length) (S. cerevisiae, UniProt P32526 1-644); test: fluorescence correlation spectroscopy
T2 sequence (looked up): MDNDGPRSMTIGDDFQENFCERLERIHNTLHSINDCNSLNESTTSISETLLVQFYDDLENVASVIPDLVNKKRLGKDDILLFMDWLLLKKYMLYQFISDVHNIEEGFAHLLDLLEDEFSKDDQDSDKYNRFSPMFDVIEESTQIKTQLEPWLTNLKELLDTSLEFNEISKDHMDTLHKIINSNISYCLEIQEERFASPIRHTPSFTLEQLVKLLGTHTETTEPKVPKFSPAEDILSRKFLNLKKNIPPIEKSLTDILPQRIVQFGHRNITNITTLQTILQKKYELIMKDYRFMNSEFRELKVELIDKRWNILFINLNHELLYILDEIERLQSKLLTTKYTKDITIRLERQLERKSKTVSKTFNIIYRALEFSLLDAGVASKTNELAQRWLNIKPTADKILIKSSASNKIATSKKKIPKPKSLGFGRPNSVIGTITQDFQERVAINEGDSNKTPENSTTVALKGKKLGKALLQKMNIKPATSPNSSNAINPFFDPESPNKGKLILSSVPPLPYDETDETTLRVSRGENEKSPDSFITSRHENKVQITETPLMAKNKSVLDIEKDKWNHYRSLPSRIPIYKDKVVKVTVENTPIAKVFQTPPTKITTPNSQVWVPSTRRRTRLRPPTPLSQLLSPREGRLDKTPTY

Kar9C-Site2mut = biological target: B5; test: ITC
Kar9C (residues 429–644) = biological target: B3; test: ITC
SEC-MALS = biological target: the molecule itself; test: SEC-MALS
[4] = biological target: T3, Kar9N-Site1 (first 570 N-terminal residues of Kar9) (S. cerevisiae, UniProt P32526 1-570); test: fluorescence correlation spectroscopy
T3 sequence (looked up): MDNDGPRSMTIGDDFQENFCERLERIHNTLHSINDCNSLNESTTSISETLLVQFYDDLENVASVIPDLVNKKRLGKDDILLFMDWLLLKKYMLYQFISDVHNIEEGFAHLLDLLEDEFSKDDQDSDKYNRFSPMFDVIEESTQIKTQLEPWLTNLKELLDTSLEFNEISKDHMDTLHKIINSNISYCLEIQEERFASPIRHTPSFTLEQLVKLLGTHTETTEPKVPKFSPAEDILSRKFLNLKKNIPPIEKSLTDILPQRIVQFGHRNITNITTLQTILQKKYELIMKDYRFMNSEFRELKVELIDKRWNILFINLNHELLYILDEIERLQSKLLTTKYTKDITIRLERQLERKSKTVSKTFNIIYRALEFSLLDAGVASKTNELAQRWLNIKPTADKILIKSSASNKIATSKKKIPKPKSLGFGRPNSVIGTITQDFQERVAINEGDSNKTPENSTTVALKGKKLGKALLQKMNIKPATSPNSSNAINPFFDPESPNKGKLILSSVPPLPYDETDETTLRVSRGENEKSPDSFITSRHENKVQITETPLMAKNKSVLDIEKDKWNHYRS

AUC = biological target: the molecule itself; test: AUC

B2: GFP-tagged C-terminal domain of Bim1 (domain or fragment, S. cerevisiae, UniProt P40013 194-344, looked up)
chain: ETIGSLNEEIEQYKGTVSTLEIEREFYFNKLRDIEILVHTTQDLINEGVYKFNDETITGHGNGNGGALLRFVKKVESILYATAEGFEMNDGEDELNDKNLGEHGTVPNQGGYANSNGEVNGNEGSNHDVIMQNDEGEVGVSNNLIIDEETF
- Kd (Kar9 (full-length)): 4.5 nM

Molecule: B3
- stoichiometry N [3]: 0.48

Molecule: B4
- Kd (Kar9C-Site2mut): 4700 nM
- Kd (Kar9C (residues 429–644)): 9.1 nM
- stoichiometry N (SEC-MALS): 2

Molecule: B5
- stoichiometry N [3]: 0.74

B6: Bim1 (full-length) (natural protein, S. cerevisiae, UniProt P40013 1-344, looked up)
chain: MSAGIGESRTELLTWLNGLLNLNYKKIEECGTGAAYCQIMDSIYGDLPMNRVKFNATAEYEFQTNYKILQSCFSRHGIEKTVYVDKLIRCKFQDNLEFLQWLKKHWIRHKDESVYDPDARRKYRPIITNNSATKPRTVSNPTTAKRSSSTGTGSAMSGGLATRHSSLGINGSRKTSVTQGQLVAIQAELTKSQETIGSLNEEIEQYKGTVSTLEIEREFYFNKLRDIEILVHTTQDLINEGVYKFNDETITGHGNGNGGALLRFVKKVESILYATAEGFEMNDGEDELNDKNLGEHGTVPNQGGYANSNGEVNGNEGSNHDVIMQNDEGEVGVSNNLIIDEETF
- stoichiometry N (SEC-MALS): 2

B7: C-terminally green fluorescent protein–tagged Bim1 (natural protein, S. cerevisiae, UniProt P40013 1-344, looked up)
chain: MSAGIGESRTELLTWLNGLLNLNYKKIEECGTGAAYCQIMDSIYGDLPMNRVKFNATAEYEFQTNYKILQSCFSRHGIEKTVYVDKLIRCKFQDNLEFLQWLKKHWIRHKDESVYDPDARRKYRPIITNNSATKPRTVSNPTTAKRSSSTGTGSAMSGGLATRHSSLGINGSRKTSVTQGQLVAIQAELTKSQETIGSLNEEIEQYKGTVSTLEIEREFYFNKLRDIEILVHTTQDLINEGVYKFNDETITGHGNGNGGALLRFVKKVESILYATAEGFEMNDGEDELNDKNLGEHGTVPNQGGYANSNGEVNGNEGSNHDVIMQNDEGEVGVSNNLIIDEETF
- Kd [4]: ~100000 nM
- stoichiometry N (AUC): 2

Results, then the molecule that gave them:

- stoichiometry N [1]: 2
Molecule: Kar9N (residues 1–429) (from UniProt P32526 1-429) (domain or fragment)

- stoichiometry N [2]: 2
Molecule: Kar9 (full-length) (from UniProt P32526 1-644) (natural protein)

- binding result (Kar9-GFP): binds
B1: Mal3 (unlabeled), Schizosaccharomyces pombe EB1 family member (natural protein, UniProt Q10113 1-308, looked up)
chain: MSESRQELLAWINQVTSLGLTRIEDCGKGYAMIQIFDSIYQDIPLKKVNFECNNEYQYINNWKVLQQVFLKKGIDKVVDPERLSRCKMQDNLEFVQWAKRFWDQYYPGGDYDALARRGNRGPANTRVMNSSAGATGPSRRRQVSSGSSTPSMTKSSANNNNVSSTANTAAVLRAKQAQQQITSLETQLYEVNETMFGLERERDFYFNKLREIEILVQTHLTTSPMSMENMLERIQAILYSTEDGFELPPDQPADLTTALTDHDTNNVAEEAQMTDLKDSETQRVPSAPDFVHARLQSLEVDDDENITF

- Kd [3]: 560 nM
- stoichiometry N [3]: 0.99
Molecule: VFQTPPTKITTPNSQVWVPSTRRRTRLRPPTPLSQLLSPREGRLDKTPTY (domain or fragment) [Trx-Kar9-Site3]
